The values below come from US20110300138A1 (published 2011).

Where two headings read alike, the source gives them in different places.

In experiment [1] the target is TSHR with Lys209 mutated to Ala (human) (UniProt P16473). The experiment can be described thus: cell-based or functional assay.
Another experiment deals with wild type TSHR (human) (UniProt P16473). The experiment can be described thus: cell-based or functional assay.
The target of experiment [2] is TSHR with Asp232 mutated to Ala expressed in CHO cells (human) (UniProt P16473). The experiment is described as follows: cell-based or functional assay.
The target of experiment [3] is wild type TSHR expressed in CHO cells (human) (UniProt P16473). The experiment is described as follows: cell-based or functional assay.
For experiment [4], the target named is TSHR with Arg274 mutated to Ala, expressed in CHO cells (human) (UniProt P16473). The experiment can be described thus: cell-based or functional assay.
For experiment [5], the target named is wild type TSHR expressed in CHO cells (human) (UniProt P16473). The experiment is described as follows: cell-based or functional assay. The source holds these as a separate data set.
In experiment [6] the target is full length wild type human TSHR (human) (UniProt P16473). The experiment can be described thus: TSHR260-AP bridge ELISA, wild type TSHR on wells; IgG at 1 µg/mL in HBD. On the technique in general: An ELISA detects its analyte on a solid surface through an enzyme-linked reagent.
The target of experiment [7] is full length human TSHR with mutation Arg255 Asp (human) (UniProt P16473). The experiment is described as follows: TSHR260-AP bridge ELISA, Arg255 Asp TSHR on wells; IgG at 1 µg/mL in HBD.
For experiment [8], the target named is full length wild type human TSHR (human) (UniProt P16473). The experiment can be described thus: TSHR260-AP bridge ELISA, wild type TSHR on wells; IgG at 0.1 µg/mL in HBD.
Experiment [9] concerns the target full length human TSHR with mutation Arg255 Asp (human) (UniProt P16473). The experiment can be described thus: TSHR260-AP bridge ELISA, Arg255 Asp TSHR on wells; IgG at 0.1 µg/mL in HBD.
Experiment [10] shares this target. The experiment is described as follows: TSHR260-AP bridge ELISA, Arg255 Asp TSHR on wells; IgG at 0.01 µg/mL in HBD.
Experiment [11] addresses TSH receptor (TSHR), full length human, coated on tubes (human) (UniProt P16473). The experiment is described as follows: inhibition of 125I-TSH binding to TSHR coated tubes; 1 µg/mL, diluted in assay buffer.
Experiment [12] concerns the target thyroid stimulating hormone receptor (TSHR), full length, coated on tubes (human) (UniProt P16473). The experiment can be described thus: inhibition of 125I-TSH binding, TSHR coated tubes; antibody 100 µg/mL in assay buffer.
Experiment [13] addresses TSH receptor (TSHR), full length human, coated on tubes (human) (UniProt P16473). The experiment can be described thus: inhibition of 125I-TSH binding to TSHR coated tubes; 0.1 µg/mL, diluted in assay buffer.
For experiment [14] the target is unchanged. The experiment is described as follows: inhibition of 125I-TSH binding to TSHR coated tubes; 0.01 µg/mL, diluted in HBD serum pool.
In experiment [15] the target is human thyroid stimulating hormone receptor (TSHR), full length (human) (UniProt P16473). The experiment is described as follows: 125I-K1-70 Fab (competitor) binding to TSHR coated tubes; test sample 1 µg/mL in HBD serum.
Experiment [16] shares this target. The experiment is described as follows: 125I-K1-70 Fab (competitor) binding to TSHR coated tubes; test sample 100 µg/mL in HBD serum.
The target is the same in experiment [17]. The experiment can be described thus: 125I-K1-70 Fab (competitor) binding to TSHR coated tubes; test sample 0.01 µg/mL in HBD serum.
Experiment [18] shares this target. The experiment can be described thus: 125I-K1-70 Fab (competitor) binding to TSHR coated tubes; test sample 10 µg/mL in assay buffer.
The target in experiment [19] is thyroid stimulating hormone receptor (full length human TSHR) (human) (UniProt P16473). The experiment is described as follows: ELISA, inhibition of TSH-biotin binding to TSHR coated wells; 100 µg/mL, diluted in assay buffer.
For experiment [20] the target is unchanged. The experiment is described as follows: ELISA, inhibition of TSH-biotin binding to TSHR coated wells; 100 µg/mL, diluted in HBD serum pool.
For experiment [21], the target named is TSHR260-alkaline phosphatase (TSHR260-AP) (human) (UniProt P05187). The experiment is described as follows: TSHR260-AP bridge ELISA, full length TSHR on wells; 0.005 µg/mL, diluted in HBD.
For experiment [22] the target is unchanged. The experiment can be described thus: TSHR260-AP bridge ELISA, full length TSHR on wells; 0.005 µg/mL, diluted in assay buffer.
Experiment [23] addresses TSHR260-AP (human). The experiment can be described thus: TSHR260-AP bridge ELISA (full length TSHR on wells, TSHR260-AP in solution); IgG 250 µg/mL diluted in HBD serum.
Experiment [24] deals with TSHR260-AP (human). The experiment can be described thus: TSHR260-AP bridge ELISA (full length TSHR on wells, TSHR260-AP in solution); IgG 0.5 µg/mL diluted in assay buffer.
The target in experiment [25] is TSHR260-alkaline phosphatase (TSHR260-AP) (human) (UniProt P05187). The experiment is described as follows: TSHR260-AP bridge ELISA, full length TSHR on wells; 100 µg/mL, diluted in assay buffer.
The target in experiment [26] is TSHR260-AP (human). The experiment is described as follows: TSHR260-AP bridge ELISA (full length TSHR on wells, TSHR260-AP in solution); IgG 100 µg/mL diluted in assay buffer.

For TSH (ligand), in experiment [1], the % inhibition of TSH stimulation, TSH (2) run at the end of assay, mutated TSHR is 18%; the Cyclic AMP produced (pmol/mL), TSH 3 ng/mL, mutated TSHR came out at 57.9 pmol/mL; the Cyclic AMP produced (pmol/mL), TSH (2) 3 ng/mL run at the end of assay, mutated TSHR amounted to 47.7 pmol/mL; the Mutated/wild type (%) of cyclic AMP produced; TSH 3 ng/mL amounted to 73%. The molecule also had a Mutated/wild type (%) of cyclic AMP produced; TSH (2) 3 ng/mL, run at the end of assay in experiment [1] of 52%. Moreover, in the experiment with wild type TSHR (human), the Cyclic AMP produced (pmol/mL), TSH 3 ng/mL, wild type TSHR came to 79 pmol/mL and the Cyclic AMP produced (pmol/mL), TSH (2) 3 ng/mL run at the end of assay, wild type TSHR stood at 91.5 pmol/mL. In experiment [2], this molecule came in with a % inhibition of TSH stimulation; TSH (2), run at the end of assay of 0%; a Mutated/wild type (%) of cyclic AMP produced; TSH 3 ng/mL of 70%; a Mutated/wild type (%) of cyclic AMP produced; TSH (2) 3 ng/mL, run at the end of assay of 76%. The molecule also had a % inhibition of TSH stimulation; TSH (2), run at the end of assay in experiment [3] of 0%. Moreover, in experiment [4], the % inhibition of TSH stimulation; TSH (2) 3 ng/mL, run at the end of assay was 0%; the Cyclic AMP produced; TSH 3 ng/mL came out at 99.2 pmol/mL; the Cyclic AMP produced; TSH (2) 3 ng/mL, run at the end of assay came to 100 pmol/mL; the Mutated/wild type (%) of cyclic AMP produced; TSH 3 ng/mL turned out to be 102%. The same molecule registered a Mutated/wild type (%) of cyclic AMP produced; TSH (2) 3 ng/mL, run at the end of assay in experiment [4] of 92%. In [5], this molecule came in with a % inhibition of TSH stimulation; TSH (2) 3 ng/mL, run at the end of assay of 0%; a Cyclic AMP produced; TSH 3 ng/mL of 97.1 pmol/mL; a Cyclic AMP produced; TSH (2) 3 ng/mL, run at the end of assay of 109 pmol/mL.
As to 9D33 IgG (antibody), the Mean absorbance at 405 nm (absorbance at 405 nm) in [6] is 0.329; in experiment [7], 0.322; in [8], 0.102; in experiment [9], 0.053; in experiment [10], -0.004. The Inhibition of binding (%) in [11] turned out to be 50.9%; in [12], 75.6%; in [13], 48.3%; in experiment [14], 3.6%; in [15], 38.8%; in [16], 55.7%. Further, the Inhibition of binding (%) in [17] was -1.2%; in experiment [18], 48%; in experiment [19], 86.8%; in [20], 84%.
As for M22 IgG (antibody), the Mean absorbance at 405 nm (absorbance at 405 nm) in experiment [6] is 1.17; in [7], 0.34; in experiment [8], 0.599; in [9], 0.05; in [10] it was -0.002; in [21] it was 0.045. Moreover, the Mean absorbance at 405 nm (absorbance at 405 nm) in experiment [22] came out at 0.075; with TSHR260-AP (human) [23], 0.833; with TSHR260-AP (human) [24] it was 0.776. Besides, the Inhibition of binding (%) in experiment [14] was -0.3%.
As for 5B3 IgG (antibody), in experiment [1], the % inhibition of TSH stimulation, 5B3 10 µg/mL, mutated TSHR was determined as 2%; the % inhibition of TSH stimulation, 5B3 100 µg/mL, mutated TSHR was determined as 3%; the Cyclic AMP produced (pmol/mL), 5B3 10 µg/mL + TSH 3 ng/mL, mutated TSHR came to 56.5 pmol/mL; the Cyclic AMP produced (pmol/mL), 5B3 100 µg/mL + TSH 3 ng/mL, mutated TSHR was found to be 55.9 pmol/mL. Moreover, in [1], the Mutated/wild type (%) of cyclic AMP produced; 5B3 10 µg/mL + TSH 3 ng/mL is 74% and the Mutated/wild type (%) of cyclic AMP produced; 5B3 100 µg/mL + TSH 3 ng/mL stood at 64%. Besides, in the experiment with wild type TSHR (human), the % inhibition of TSH stimulation, 5B3 10 µg/mL, wild type TSHR came to 3%; the Cyclic AMP produced (pmol/mL), 5B3 10 µg/mL + TSH 3 ng/mL, wild type TSHR was found to be 76.6 pmol/mL; the Cyclic AMP produced (pmol/mL), 5B3 100 µg/mL + TSH 3 ng/mL, wild type TSHR came to 87.7 pmol/mL. Further, in [2], the % inhibition of TSH stimulation; 5B3 10 µg/mL amounted to 10%, the % inhibition of TSH stimulation; 5B3 100 µg/mL is 6%, the Mutated/wild type (%) of cyclic AMP produced; 5B3 10 µg/mL + TSH 3 ng/mL was found to be 59% and the Mutated/wild type (%) of cyclic AMP produced; 5B3 100 µg/mL + TSH 3 ng/mL was found to be 58%. In experiment [3], the % inhibition of TSH stimulation; 5B3 10 µg/mL was determined as 0% and the % inhibition of TSH stimulation; 5B3 100 µg/mL was found to be 0%. Also, in [4], the % inhibition of TSH stimulation; 5B3 10 µg/mL was found to be 0%, the % inhibition of TSH stimulation; 5B3 100 µg/mL came to 4%, the Cyclic AMP produced; 5B3 10 µg/mL + TSH 3 ng/mL came to 106 pmol/mL and the Cyclic AMP produced; 5B3 10 µg/mL + TSH 3 ng/mL (second row printed with 10 µg/mL) was 95.3 pmol/mL. In experiment [4], the Mutated/wild type (%) of cyclic AMP produced; 5B3 10 µg/mL + TSH 3 ng/mL is 92% and the Mutated/wild type (%) of cyclic AMP produced; 5B3 10 µg/mL + TSH 3 ng/mL (second row printed with 10 µg/mL) was found to be 79%. Also, in experiment [5], the % inhibition of TSH stimulation; 5B3 10 µg/mL is 0%, the % inhibition of TSH stimulation; 5B3 100 µg/mL amounted to 0%, the Cyclic AMP produced; 5B3 10 µg/mL + TSH 3 ng/mL was 116 pmol/mL and the Cyclic AMP produced; 5B3 10 µg/mL + TSH 3 ng/mL (second row printed with 10 µg/mL) came out at 121 pmol/mL. For the same molecule, in [11], the Inhibition of binding (%) was -1.7%. The Mean absorbance at 405 nm (absorbance at 405 nm) in experiment [25] is -0.011. For the same molecule, the Inhibition of binding (%) in experiment [13] is -5%. In addition, the Mean absorbance at 405 nm (absorbance at 405 nm) with TSHR260-AP (human) [23] came out at 0.012. In the experiment with TSHR260-AP (human) [24], the Mean absorbance at 405 nm (absorbance at 405 nm) is -0.006. This molecule returned a Mean absorbance at 405 nm (absorbance at 405 nm) in the experiment with TSHR260-AP (human) [26] of -0.011.

B1: 5C9 IgG (antibody, from another filing, V domains shown)
VH: EVQLVESGGGLIQPGGSLRLSCAASGFTVSSNYMSWVRQAPGKGLEWVSVTYSGGSTSYADSVKGRFTISRDNSKNTLYLQMNSLRAEDTAVYYCARGGRYCSSISCYARSGCDYWGQGTLVTVSS
VL: AIQMTQSPSSLSASVGDRVTITCRASQSISNYLNWYQQKPGKAPKLLIYAASSLQSGVPSRFSGSGSGTDFTLTISSLQPEDFATYYCQQSYSSPSTTFGQGTKLEIK
With B1, the Mean absorbance at 405 nm (absorbance at 405 nm) in experiment [21] was 0.02; in [25], 0.669; in experiment [22], -0.009; with TSHR260-AP (human) [23], 0.058; with TSHR260-AP (human) [24] it was -0.005; with TSHR260-AP (human) [26], 0.669. Besides, the Inhibition of binding (%) in experiment [12] is 82.9%; in [15], 8.1%; in experiment [16], 40.6%; in [17], -4.4%; in experiment [18] it was 80.4%; in experiment [19], 54.3%. In experiment [20], the Inhibition of binding (%) came out at 37.1%.
